{
  "source": "paper PMC11457862",
  "about": "“Engineered cytokine/antibody fusion proteins improve IL-2 delivery to pro-inflammatory cells and promote antitumor activity” (JCI Insight, 2024)",
  "binders": {"B1": {"name": "anti-human IL-2 antibody 602 (MAB602), recombinant mouse IgG2a kappa (antibody, V domains shown)", "VH": "EVQLQESGPGLVAPSQSLSITCTVSGFSLTNYDISWIRQPPGKGLEWLGVIWTGGGTNYNSGFMSRLSITKDNSKSQVFLKMNSLQTDDTAIYYCVRQGRTPYWGQGTLVTVSA", "VL": "DIQVTQSPSSLSVSLGDRVTITCKASKDIYNRLAWYQQKPGNAPRLLISGATSLETGVPSRFSGSGSGKDYTLTITSLQTEDVATYYCQQFWGTPYTFGGGTKLEIK", "notes": "mouse IgG2a heavy chain constant region; mouse kappa light chain constant region; mouse IgG2a kappa; source: HEK 293F, transient co-transfection, purified (Protein G, SEC); copies: 2 + 2"}, "B2": {"name": "602 scFv (VH-[G4S]3-VL), soluble (scFv, V domains shown)", "VH": "B1 VH", "VL": "B1 VL", "notes": "the scFv chain of PDB 8SOZ; source: HEK 293F, purified (Ni-NTA, SEC)"}, "B3": {"name": "F10 scFv (VH-[G4S]3-VL), soluble (scFv, V domains shown)", "VH": "B1 VH with T101S", "VL": "B1 VL with F91S, G93D", "notes": "the scFv chain of PDB 8SOW; source: HEK 293F, purified (Ni-NTA, SEC)"}, "B4": {"name": "yeast-displayed 602 scFv variant A8 (scFv, V domains shown)", "VH": "B1 VH", "VL": "B1 VL with G93D, T97S", "notes": "also called A8 scFv; not shown: Aga2, N-terminal, kept"}, "B5": {"name": "yeast-displayed 602 scFv variant C5 (scFv, V domains shown)", "VH": "B1 VH", "VL": "B1 VL with F91T", "notes": "also called C5 scFv; not shown: Aga2, N-terminal, kept"}, "B6": {"name": "yeast-displayed 602 scFv variant E10 (scFv, V domains shown)", "VH": "B1 VH with T101A", "VL": "B1 VL with F91L", "notes": "also called E10 scFv; not shown: Aga2, N-terminal, kept"}, "B7": {"name": "yeast-displayed 602 scFv variant H2 (scFv, V domains shown)", "VH": "B1 VH with T101S", "VL": "B1 VL with Y30H, F91V", "notes": "also called H2 scFv; not shown: Aga2, N-terminal, kept"}, "B8": {"name": "F10 scFv (scFv, V domains shown)", "VH": "B1 VH with T101S", "VL": "B1 VL with F91S, G93D", "notes": "as the scFv of m13 with the stated changes; numbers count on the scFv (T99S in CDR3H, F91S and G93D in CDR3L, Kabat); soluble scFv used for BLI and for the crystal structure; also called variant F10"}},
  "key": {"[1]": {"target": "T1, biotinylated human IL-2 (amino acids 1-133, C-terminal biotin acceptor peptide) (human, UniProt P60568, biotin on the biotin acceptor peptide (BirA ligase))", "T1 construct": "also called immobilized IL-2; hIL-2; source: HEK 293F, purified (Ni-NTA, biotinylated with BirA, SEC)", "experiment": "BLI; same set-up as a1; equilibrium titration of the response at the end of the association phase, first-order fit (Figures 2 and 3, Supplemental Table 1)", "settings": "both partners purified"}, "[2]": {"target": "T2, biotinylated mouse IL-2Rα (Mus musculus, UniProt P01590, biotin)", "T2 construct": "mouse IL-2 receptor alpha; the supplementary methods describe only the human constructs; probably an ectodomain with BAP like them; also called mIL-2Rα", "T2 sequence (P01590 22-268)": "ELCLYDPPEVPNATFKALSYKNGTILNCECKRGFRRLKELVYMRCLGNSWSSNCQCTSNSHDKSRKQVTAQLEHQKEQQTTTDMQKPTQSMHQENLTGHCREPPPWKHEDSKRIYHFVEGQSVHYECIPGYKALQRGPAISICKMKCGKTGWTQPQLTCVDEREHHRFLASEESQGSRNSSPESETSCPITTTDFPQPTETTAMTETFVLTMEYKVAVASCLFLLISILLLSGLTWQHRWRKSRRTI", "experiment": "BLI; same set-up as a7; equilibrium titration, first-order fit (Supplemental Figure 6G,H, Supplemental Table 1)", "settings": "both partners purified"}, "[3]": {"target": "T3, biotinylated mouse IL-2Rβ (Mus musculus, UniProt P16297, biotin)", "T3 construct": "mouse IL-2 receptor beta; the supplementary methods describe only the human constructs; probably an ectodomain with BAP like them; also called mIL-2Rβ", "T3 sequence (P16297 27-539)": "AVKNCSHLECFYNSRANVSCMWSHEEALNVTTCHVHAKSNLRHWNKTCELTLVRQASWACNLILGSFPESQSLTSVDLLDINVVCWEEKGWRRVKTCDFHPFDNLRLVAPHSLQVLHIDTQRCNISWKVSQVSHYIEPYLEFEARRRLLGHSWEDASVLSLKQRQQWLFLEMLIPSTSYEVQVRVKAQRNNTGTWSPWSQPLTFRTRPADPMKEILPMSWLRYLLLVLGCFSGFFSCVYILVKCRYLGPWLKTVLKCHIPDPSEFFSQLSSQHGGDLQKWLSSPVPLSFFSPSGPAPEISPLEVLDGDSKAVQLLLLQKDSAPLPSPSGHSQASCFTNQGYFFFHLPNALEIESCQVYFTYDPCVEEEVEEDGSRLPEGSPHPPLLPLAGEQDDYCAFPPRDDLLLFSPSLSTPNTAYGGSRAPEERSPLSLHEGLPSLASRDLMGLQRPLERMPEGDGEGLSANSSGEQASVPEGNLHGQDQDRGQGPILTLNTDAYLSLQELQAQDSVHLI", "experiment": "BLI; same set-up as a7; equilibrium titration, first-order fit (Supplemental Figure 6G,H, Supplemental Table 1)", "settings": "both partners purified"}, "[4]": {"target": "T1, biotinylated human IL-2 (amino acids …)", "experiment": "BLI; biotinylated human IL-2, IL-2Rα or IL-2Rβ on streptavidin tips (Octet Red96); soluble analyte in PBSA (PBS pH 7.2, 0.1% BSA), 300 s association; kinetic fit, 1:1 binding model; IL-2/602 Cx 2:1 by the legend (Supplemental Figure 2, Supplemental Table 1)", "settings": "both partners purified"}, "[5]": {"target": "T1, biotinylated human IL-2 (amino acids …)", "experiment": "BLI; biotinylated human IL-2 or IL-2Rβ on streptavidin tips; engineered 602 IC variants and controls in PBSA; kinetic fit, 1:1 binding model (Supplemental Figure 5, Supplemental Table 4)", "settings": "both partners purified"}, "[6]": {"target": "T1, biotinylated human IL-2 (amino acids …)", "experiment": "BLI; same set-up as a3; equilibrium titration, first-order fit (Supplemental Figure 4A-C, Supplemental Table 4)", "settings": "both partners purified"}, "[7]": {"target": "T1, biotinylated human IL-2 (amino acids …)", "experiment": "BLI; same set-up as a5; equilibrium titration, first-order fit (Supplemental Figure 6C,D, Supplemental Table 5)", "settings": "both partners purified"}, "[8]": {"target": "T1, biotinylated human IL-2 (amino acids …)", "experiment": "BLI; biotinylated human IL-2 on streptavidin tips; scFvs, IL-2/antibody complexes (2:1) and ICs in PBSA; kinetic fit, 1:1 binding model (Supplemental Figure 6A,B, Supplemental Table 5)", "settings": "both partners purified"}, "[9]": {"target": "T1, biotinylated human IL-2 (amino acids …)", "experiment": "flow cytometry on cells; yeast displaying scFv incubated with 5 nM biotinylated IL-2 and titrated IL-2Rα in PBE buffer, 2 h, room temperature; detected with Alexa Fluor 647 streptavidin", "settings": "one partner purified"}, "human IL-2": {"target": "T4, human IL-2 (human, UniProt P60568)", "T4 construct": "Used soluble, immobilised on BLI tips and in the crystals; also called hIL-2; interleukin-2", "experiment": "BLI; scFvs with IL-2, kinetics; who was immobilised is not told in what was shown", "settings": "both partners purified"}},
  "note": "Positions count from the first letter of the chain named. Names may count otherwise.",
  "data": [
    {"binder": "B1", "values": [
      {"measurement": "Kd", "setting": "[1]", "value": "6.3 ± 5.2", "unit": "nM"},
      {"measurement": "Kd", "setting": "[2]", "value": "> 10", "unit": "µM"},
      {"measurement": "Kd", "setting": "[3]", "value": "> 10", "unit": "µM"},
      {"measurement": "Kd", "setting": "[4]", "value": "0.13 ± 0.02", "unit": "nM"},
      {"measurement": "koff", "setting": "[4]", "value": "5.1e-05", "unit": "s⁻¹"},
      {"measurement": "kon", "setting": "[4]", "value": 382000, "unit": "M⁻¹ s⁻¹"},
      {"measurement": "Kd", "setting": "[5]", "value": "0.044 ± 0.05", "unit": "nM"},
      {"measurement": "koff", "setting": "[5]", "value": "2.8e-05", "unit": "s⁻¹"},
      {"measurement": "kon", "setting": "[5]", "value": 642000, "unit": "M⁻¹ s⁻¹"},
      {"measurement": "Kd", "setting": "[6]", "value": "3.7 ± 7.4", "unit": "nM"}
    ]},
    {"binder": "B2", "values": [
      {"measurement": "Kd", "setting": "[7]", "value": "9 ± 8.59", "unit": "nM"},
      {"measurement": "Kd", "setting": "[8]", "value": "1.94 ± 0.02", "unit": "nM"},
      {"measurement": "koff", "setting": "[8]", "value": 0.00067, "unit": "s⁻¹"},
      {"measurement": "kon", "setting": "[8]", "value": 361000, "unit": "M⁻¹ s⁻¹"}
    ]},
    {"binder": "B3", "values": [
      {"measurement": "Kd", "setting": "[7]", "value": "6.12 ± 5.66", "unit": "nM"},
      {"measurement": "Kd", "setting": "[8]", "value": "0.34 ± 0.01", "unit": "nM"},
      {"measurement": "koff", "setting": "[8]", "value": 0.000188, "unit": "s⁻¹"},
      {"measurement": "kon", "setting": "[8]", "value": 563000, "unit": "M⁻¹ s⁻¹"}
    ]},
    {"binder": "B4", "values": [
      {"measurement": "binding result", "setting": "[9]", "value": "binds"}
    ]},
    {"binder": "B5", "values": [
      {"measurement": "binding result", "setting": "[9]", "value": "binds"}
    ]},
    {"binder": "B6", "values": [
      {"measurement": "binding result", "setting": "[9]", "value": "binds"}
    ]},
    {"binder": "B7", "values": [
      {"measurement": "binding result", "setting": "[9]", "value": "binds"}
    ]},
    {"binder": "B8", "values": [
      {"measurement": "fold reduction in dissociation rate against 602 scFv", "setting": "human IL-2", "value": 3.6, "unit": "fold"}
    ]}
  ]
}
